Experimental data published in patent publication US20100183520A1.

Target: UNC5B netrin-1 receptor on mouse leukocytes / CD4+ T cells (mouse) (UniProt Q8K1S3)
Assay: cell-based or functional assay

Chain of UniProt Q8K1S3 (Q8K1S3 27-945): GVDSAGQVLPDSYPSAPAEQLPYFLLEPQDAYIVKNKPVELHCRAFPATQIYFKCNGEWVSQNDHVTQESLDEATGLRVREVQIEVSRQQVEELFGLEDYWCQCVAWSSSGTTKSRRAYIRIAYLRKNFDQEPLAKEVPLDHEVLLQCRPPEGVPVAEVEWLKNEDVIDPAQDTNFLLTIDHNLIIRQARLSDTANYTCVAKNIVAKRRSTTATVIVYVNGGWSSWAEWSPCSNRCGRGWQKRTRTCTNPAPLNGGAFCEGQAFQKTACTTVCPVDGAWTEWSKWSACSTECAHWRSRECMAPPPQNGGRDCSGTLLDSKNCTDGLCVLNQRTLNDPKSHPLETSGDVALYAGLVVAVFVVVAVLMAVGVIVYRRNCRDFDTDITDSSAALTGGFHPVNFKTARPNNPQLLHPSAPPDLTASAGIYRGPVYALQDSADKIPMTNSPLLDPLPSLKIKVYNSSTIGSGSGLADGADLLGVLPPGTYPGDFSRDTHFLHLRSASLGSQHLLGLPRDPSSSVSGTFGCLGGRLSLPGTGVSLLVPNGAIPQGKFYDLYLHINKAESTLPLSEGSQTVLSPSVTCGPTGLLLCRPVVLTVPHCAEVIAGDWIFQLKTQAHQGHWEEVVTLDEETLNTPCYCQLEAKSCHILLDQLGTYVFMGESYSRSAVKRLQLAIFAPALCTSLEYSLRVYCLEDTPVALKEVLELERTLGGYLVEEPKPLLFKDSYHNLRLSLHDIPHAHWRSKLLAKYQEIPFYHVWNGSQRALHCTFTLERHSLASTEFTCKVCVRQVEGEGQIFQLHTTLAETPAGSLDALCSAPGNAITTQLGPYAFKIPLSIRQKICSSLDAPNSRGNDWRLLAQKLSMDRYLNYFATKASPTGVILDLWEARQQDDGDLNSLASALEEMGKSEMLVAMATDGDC

inhibition of anti-CD3 stimulated cytokine production in CD4+CD25- T cells: netrin-1 concentration with maximal inhibition: 500 ng/mL | inhibition of anti-CD3 stimulated cytokine production in CD4+CD25- T cells: netrin-1 concentration with minimal effect: 100 ng/mL
Substance: recombinant netrin-1 (R&D Systems) (ligand)
